Experimental findings from patent US20190031783A1 (AbbVie / Abbott, published 2019) are described below.

In test [1] the target is T1, purified recombinant human DLL4 extracellular domain (ECD) (human, UniProt Q9NR61 27-529).
T1 construct: extracellular domain; also called human DLL4529; huDLL4
The test is described as follows: SPR (Biacore), DVD captured via anti-human Fc, DLL4 ECD injected, 25 C. The procedure: For DLL4 binding kinetic measurements the assay buffer was HBS-EPB: 10 mM Hepes, pH7.5, 150 mM NaCl, 3 mM EDTA, 0.005% Tween 20, 0.1 mg/ml BSA (Sigma A7906). For VEGF binding kinetic measurements the assay buffer was HBS-EP+(3N01B): 10 mM Hepes, pH7.5, 300 mM NaCl, 3 mM EDTA, 0.05% Tween 20, 0.1 mg/ml BSA (Sigma A7906). For example, approximately 9000 RU of goat anti-human Fc specific polyclonal antibody (Thermo Fisher Scientific Inc., Rockford, Ill.) diluted in 10 mM sodium acetate (pH 4.5) is directly immobilized across a CM5 research grade biosensor chip using a standard amine coupling kit according to manufacturer's instructions and procedures at 25 ug/ml. Unreacted moieties on the biosensor surface are blocked with ethanolamine. For kinetic analysis, rate equations derived from the 1:1 Langmuir binding model are fitted simultaneously to multiple antigen injections (using global fit analysis) with the use of Scrubber 2 (BioLogic Software), Biacore Biaevaluation 4.0.1 software or Biacore T100 Evaluation software. Purified antibodies are diluted in running buffer for capture across goat anti-human Fc reaction surfaces. Antibodies to be captured as a ligand (1 ug/ml) are injected over reaction matrices at a flow rate of 10 ul/min. During the assay, all measurements are referenced against the capture surface alone (i.e. with no captured antibody). […] The equilibrium dissociation constant KD (M) of the reaction between antibodies and the target antigen is then calculated from the kinetic rate constants by the following formula: KD=Koff/Kₒₙ. Binding is recorded as a function of time and kinetic rate constants are calculated.

Test [2] addresses T1, purified recombinant human DLL4 …. The test is described as follows: Notch competition ELISA: inhibition of biotin DLL4 ECD binding to coated human Notch-1. The method, then:
Plates were then washed 3× with wash buffer (PBS, 0.05% Tween-20) and blocked with 200 μl/well blocking buffer (D-PBS, 1% BSA, 1 mM CaCl₂, 0.05% Tween-20) for 1 hour at 25° C. […] Assay plates were washed after blocking, and incubated with DLL4/antibody mixtures (100 μl/well, 1 hour at 25° C. with shaking). Plates were washed again and 100 μl/well of streptavidin conjugated with HRP (Fitzgerald #65R-S104PHRPx, diluted 1:5,000 in blocking buffer) was added for 1 hour at 25° C. with shaking. After a final wash, plates were developed using 100 μl/well substrate (TMB Sigma #T8665), and the reaction was stopped using 100 μl/well 1N HCl, and the absorbance was read at 450 nm. Data was analyzed using Graphpad Prism software and IC₅₀ values were reported as the concentration of antibody required to achieve 50% reduction of DLL4 binding to Notch1.
Background: In an ELISA, binding on a coated surface is turned into a signal by an enzyme label.

B1: Av-GS6-h1A11.1 (bispecific antibody, human IgG1)
VH: EVQLVESGGGLVQPGGSLRLSCAASGYTFTNYGMNWVRQAPGKGLEWVGWINTYTGEPTYAADFKRRFTFSLDTSKSTAYLQMNSLRAEDTAVYYCAKYPHYYGSSHWYFDVWGQGTLVTVSSGGGGSGEVQLVESGGGLVQPGGSLRLSCAASGFTFSNFPMAWVRQAPGKGLEWVATISSSDGTTYYRDSVKGRFTISRDNAKNSLYLQMNSLRAEDTAVYYCARGYYNSPFAYWGQGTLVTVSS
VL: DIQMTQSPSSLSASVGDRVTITCSASQDISNYLNWYQQKPGKAPKVLIYFTSSLHSGVPSRFSGSGSGTDFTLTISSLQPEDFATYYCQQYSTVPWTFGQGTKVEIKRGGSGGDIQMTQSPSSLSASVGDRVTITCRASEDIYSNLAWYQQKPGKAPKLLIYDTNNLADGVPSRFSGSGSGTDFTLTISSLQPEDFATYYCQQYNNYPPTFGQGTKLEIKR
notes: DVD-Ig
On to B1, for which the Kd (as a rule, the concentration at which binding is half-saturated) in test [1] is 50 nM. In test [2], the IC50 (in general, the concentration that inhibits the measured activity by half) was determined as 3.41 nM.

B2: Av-LS-h1A11.1 (bispecific antibody, human IgG1)
VH: EVQLVESGGGLVQPGGSLRLSCAASGYTFTNYGMNWVRQAPGKGLEWVGWINTYTGEPTYAADFKRRFTFSLDTSKSTAYLQMNSLRAEDTAVYYCAKYPHYYGSSHWYFDVWGQGTLVTVSSASTKGPSVFPLAPEVQLVESGGGLVQPGGSLRLSCAASGFTFSNFPMAWVRQAPGKGLEWVATISSSDGTTYYRDSVKGRFTISRDNAKNSLYLQMNSLRAEDTAVYYCARGYYNSPFAYWGQGTLVTVSS
VL: DIQMTQSPSSLSASVGDRVTITCSASQDISNYLNWYQQKPGKAPKVLIYFTSSLHSGVPSRFSGSGSGTDFTLTISSLQPEDFATYYCQQYSTVPWTFGQGTKVEIKRTVAAPDIQMTQSPSSLSASVGDRVTITCRASEDIYSNLAWYQQKPGKAPKLLIYDTNNLADGVPSRFSGSGSGTDFTLTISSLQPEDFATYYCQQYNNYPPTFGQGTKLEIKR
notes: DVD-Ig
For the molecule B2, the IC50 in test [2] amounted to 2.77 nM.

B3: Av-SL-h1A11.1 (bispecific antibody, human IgG1)
VH: EVQLVESGGGLVQPGGSLRLSCAASGYTFTNYGMNWVRQAPGKGLEWVGWINTYTGEPTYAADFKRRFTFSLDTSKSTAYLQMNSLRAEDTAVYYCAKYPHYYGSSHWYFDVWGQGTLVTVSSASTKGPEVQLVESGGGLVQPGGSLRLSCAASGFTFSNFPMAWVRQAPGKGLEWVATISSSDGTTYYRDSVKGRFTISRDNAKNSLYLQMNSLRAEDTAVYYCARGYYNSPFAYWGQGTLVTVSS
VL: DIQMTQSPSSLSASVGDRVTITCSASQDISNYLNWYQQKPGKAPKVLIYFTSSLHSGVPSRFSGSGSGTDFTLTISSLQPEDFATYYCQQYSTVPWTFGQGTKVEIKRTVAAPSVFIFPPDIQMTQSPSSLSASVGDRVTITCRASEDIYSNLAWYQQKPGKAPKLLIYDTNNLADGVPSRFSGSGSGTDFTLTISSLQPEDFATYYCQQYNNYPPTFGQGTKLEIKR
notes: DVD-Ig
As to B3, the IC50 in test [2] was 7.38 nM.

B4: Av-SS-h1A11.1 (bispecific antibody, human IgG1)
VH: EVQLVESGGGLVQPGGSLRLSCAASGYTFTNYGMNWVRQAPGKGLEWVGWINTYTGEPTYAADFKRRFTFSLDTSKSTAYLQMNSLRAEDTAVYYCAKYPHYYGSSHWYFDVWGQGTLVTVSSASTKGPEVQLVESGGGLVQPGGSLRLSCAASGFTFSNFPMAWVRQAPGKGLEWVATISSSDGTTYYRDSVKGRFTISRDNAKNSLYLQMNSLRAEDTAVYYCARGYYNSPFAYWGQGTLVTVSS
VL: DIQMTQSPSSLSASVGDRVTITCSASQDISNYLNWYQQKPGKAPKVLIYFTSSLHSGVPSRFSGSGSGTDFTLTISSLQPEDFATYYCQQYSTVPWTFGQGTKVEIKRTVAAPDIQMTQSPSSLSASVGDRVTITCRASEDIYSNLAWYQQKPGKAPKLLIYDTNNLADGVPSRFSGSGSGTDFTLTISSLQPEDFATYYCQQYNNYPPTFGQGTKLEIKR
notes: DVD-Ig
In the case of B4, the IC50 in test [2] worked out at 3500 nM.

B5: h1A11.1-GS10-Av (bispecific antibody, human IgG1)
VH: EVQLVESGGGLVQPGGSLRLSCAASGFTFSNFPMAWVRQAPGKGLEWVATISSSDGTTYYRDSVKGRFTISRDNAKNSLYLQMNSLRAEDTAVYYCARGYYNSPFAYWGQGTLVTVSSGGGGSGGGGSEVQLVESGGGLVQPGGSLRLSCAASGYTFTNYGMNWVRQAPGKGLEWVGWINTYTGEPTYAADFKRRFTFSLDTSKSTAYLQMNSLRAEDTAVYYCAKYPHYYGSSHWYFDVWGQGTLVTVSS
VL: DIQMTQSPSSLSASVGDRVTITCRASEDIYSNLAWYQQKPGKAPKLLIYDTNNLADGVPSRFSGSGSGTDFTLTISSLQPEDFATYYCQQYNNYPPTFGQGTKLEIKRGGSGGGGSGDIQMTQSPSSLSASVGDRVTITCSASQDISNYLNWYQQKPGKAPKVLIYFTSSLHSGVPSRFSGSGSGTDFTLTISSLQPEDFATYYCQQYSTVPWTFGQGTKVEIKR
notes: DVD-Ig; also called h1A11.GS10-Av
For the molecule B5, the Kd in test [1] was 9.3 nM. Further, in test [2], the IC50 came to 0.65 nM.

B6: Av-GS14-h1A11.1 (bispecific antibody, human IgG1)
VH: EVQLVESGGGLVQPGGSLRLSCAASGYTFTNYGMNWVRQAPGKGLEWVGWINTYTGEPTYAADFKRRFTFSLDTSKSTAYLQMNSLRAEDTAVYYCAKYPHYYGSSHWYFDVWGQGTLVTVSSGGGGSGGGGSGGGGEVQLVESGGGLVQPGGSLRLSCAASGFTFSNFPMAWVRQAPGKGLEWVATISSSDGTTYYRDSVKGRFTISRDNAKNSLYLQMNSLRAEDTAVYYCARGYYNSPFAYWGQGTLVTVSS
VL: DIQMTQSPSSLSASVGDRVTITCSASQDISNYLNWYQQKPGKAPKVLIYFTSSLHSGVPSRFSGSGSGTDFTLTISSLQPEDFATYYCQQYSTVPWTFGQGTKVEIKRGGSGGGGSGGGSDIQMTQSPSSLSASVGDRVTITCRASEDIYSNLAWYQQKPGKAPKLLIYDTNNLADGVPSRFSGSGSGTDFTLTISSLQPEDFATYYCQQYNNYPPTFGQGTKLEIKR
notes: DVD-Ig
As for B6, the Kd in test [1] amounted to 34 nM. The IC50 in test [2] is 1.54 nM.

B7: h1A11.1-GS14-Av (bispecific antibody, human IgG1)
VH: EVQLVESGGGLVQPGGSLRLSCAASGFTFSNFPMAWVRQAPGKGLEWVATISSSDGTTYYRDSVKGRFTISRDNAKNSLYLQMNSLRAEDTAVYYCARGYYNSPFAYWGQGTLVTVSSGGGGSGGGGSGGGGEVQLVESGGGLVQPGGSLRLSCAASGYTFTNYGMNWVRQAPGKGLEWVGWINTYTGEPTYAADFKRRFTFSLDTSKSTAYLQMNSLRAEDTAVYYCAKYPHYYGSSHWYFDVWGQGTLVTVSS
VL: DIQMTQSPSSLSASVGDRVTITCRASEDIYSNLAWYQQKPGKAPKLLIYDTNNLADGVPSRFSGSGSGTDFTLTISSLQPEDFATYYCQQYNNYPPTFGQGTKLEIKRGGSGGGGSGGGGSDIQMTQSPSSLSASVGDRVTITCSASQDISNYLNWYQQKPGKAPKVLIYFTSSLHSGVPSRFSGSGSGTDFTLTISSLQPEDFATYYCQQYSTVPWTFGQGTKVEIKR
notes: DVD-Ig
As to B7, the Kd in test [1] is 9.7 nM. Further, the IC50 in test [2] turned out to be 0.68 nM.

B8: Av-LL-h1A11.1 (bispecific antibody, human IgG1)
VH: EVQLVESGGGLVQPGGSLRLSCAASGYTFTNYGMNWVRQAPGKGLEWVGWINTYTGEPTYAADFKRRFTFSLDTSKSTAYLQMNSLRAEDTAVYYCAKYPHYYGSSHWYFDVWGQGTLVTVSSASTKGPSVFPLAPEVQLVESGGGLVQPGGSLRLSCAASGFTFSNFPMAWVRQAPGKGLEWVATISSSDGTTYYRDSVKGRFTISRDNAKNSLYLQMNSLRAEDTAVYYCARGYYNSPFAYWGQGTLVTVSS
VL: DIQMTQSPSSLSASVGDRVTITCSASQDISNYLNWYQQKPGKAPKVLIYFTSSLHSGVPSRFSGSGSGTDFTLTISSLQPEDFATYYCQQYSTVPWTFGQGTKVEIKRTVAAPSVFIFPPDIQMTQSPSSLSASVGDRVTITCRASEDIYSNLAWYQQKPGKAPKLLIYDTNNLADGVPSRFSGSGSGTDFTLTISSLQPEDFATYYCQQYNNYPPTFGQGTKLEIKR
notes: DVD-Ig
On to B8, for which the IC50 in test [2] stood at 2.43 nM.

B9: Av-GS10-h1A11.1 (bispecific antibody, human IgG1)
VH: EVQLVESGGGLVQPGGSLRLSCAASGYTFTNYGMNWVRQAPGKGLEWVGWINTYTGEPTYAADFKRRFTFSLDTSKSTAYLQMNSLRAEDTAVYYCAKYPHYYGSSHWYFDVWGQGTLVTVSSGGGGSGGGGSEVQLVESGGGLVQPGGSLRLSCAASGFTFSNFPMAWVRQAPGKGLEWVATISSSDGTTYYRDSVKGRFTISRDNAKNSLYLQMNSLRAEDTAVYYCARGYYNSPFAYWGQGTLVTVSS
VL: DIQMTQSPSSLSASVGDRVTITCSASQDISNYLNWYQQKPGKAPKVLIYFTSSLHSGVPSRFSGSGSGTDFTLTISSLQPEDFATYYCQQYSTVPWTFGQGTKVEIKRGGSGGGGSGDIQMTQSPSSLSASVGDRVTITCRASEDIYSNLAWYQQKPGKAPKLLIYDTNNLADGVPSRFSGSGSGTDFTLTISSLQPEDFATYYCQQYNNYPPTFGQGTKLEIKR
notes: DVD-Ig
Consider B9, for which the Kd in test [1] stood at 29 nM. In addition, in test [2], the IC50 came out at 1.5 nM.
